From paper PMC10786891, “Massively parallel profiling of RNA-targeting CRISPR-Cas13d”

T1: EsCas13d, nuclease-dead (Eubacterium siraeum, UniProt B0MS50, R295A;H300A;R849A;H854A)
T1 sequence: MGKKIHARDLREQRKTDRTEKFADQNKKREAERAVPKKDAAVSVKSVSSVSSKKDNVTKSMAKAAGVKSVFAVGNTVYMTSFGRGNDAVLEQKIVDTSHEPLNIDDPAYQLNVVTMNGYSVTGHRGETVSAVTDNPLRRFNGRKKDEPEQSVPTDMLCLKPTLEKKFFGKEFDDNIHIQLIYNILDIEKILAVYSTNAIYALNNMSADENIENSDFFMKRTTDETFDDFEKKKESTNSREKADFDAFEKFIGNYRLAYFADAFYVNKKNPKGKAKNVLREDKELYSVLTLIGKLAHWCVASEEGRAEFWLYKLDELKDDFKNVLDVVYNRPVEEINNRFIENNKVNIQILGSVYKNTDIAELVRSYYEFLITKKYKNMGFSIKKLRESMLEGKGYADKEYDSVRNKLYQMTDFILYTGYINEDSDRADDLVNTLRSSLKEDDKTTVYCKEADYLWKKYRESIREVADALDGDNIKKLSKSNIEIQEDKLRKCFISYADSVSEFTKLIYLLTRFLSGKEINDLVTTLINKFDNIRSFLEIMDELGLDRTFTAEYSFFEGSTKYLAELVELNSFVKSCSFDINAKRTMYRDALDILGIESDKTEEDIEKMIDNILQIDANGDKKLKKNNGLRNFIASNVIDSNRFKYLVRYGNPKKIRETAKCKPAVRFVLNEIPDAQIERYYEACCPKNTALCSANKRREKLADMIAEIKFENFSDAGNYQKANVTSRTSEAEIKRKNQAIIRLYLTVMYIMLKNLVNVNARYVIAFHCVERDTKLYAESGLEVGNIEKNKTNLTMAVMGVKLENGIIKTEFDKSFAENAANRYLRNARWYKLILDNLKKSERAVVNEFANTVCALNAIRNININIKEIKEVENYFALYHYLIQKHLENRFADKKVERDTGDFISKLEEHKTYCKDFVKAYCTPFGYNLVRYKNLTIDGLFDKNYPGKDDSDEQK

B1: target 1 MT 5'PFS GUG 3'PFS UAC (mixed)
RNA 1: CACCCGUGCAAAAAUGCAGGGGUCUAAAACUGAGCGGAUAACCUCUCUAUGG
RNA 2: GGGAAUGGAUCCACAUCUACGAAUUCGUGCCAUAGAGAGGUUAUCCGCUCAUACAGAUCGGAAGAGCACACGU
B2: target 1 MT 5'PFS CAG 3'PFS UCC (mixed)
RNA 1: CACCCGUGCAAAAAUGCAGGGGUCUAAAACUGAGCGGAUAACCUCUCUAUGG
RNA 2: GGGAAUGGAUCCACAUCUACGAAUUCCAGCCAUAGAGAGGUUAUCCGCUCAUCCAGAUCGGAAGAGCACACGU
B3: target 1 MT 5'PFS AAC 3'PFS CUA (mixed)
RNA 1: CACCCGUGCAAAAAUGCAGGGGUCUAAAACUGAGCGGAUAACCUCUCUAUGG
RNA 2: GGGAAUGGAUCCACAUCUACGAAUUCAACCCAUAGAGAGGUUAUCCGCUCACUAAGAUCGGAAGAGCACACGU
B4: target 1 C2G,G5C (mixed)
RNA 1: CACCCGUGCAAAAAUGCAGGGGUCUAAAACUGAGCGGAUAACCUCUCUAUGG
RNA 2: GGGAAUGGAUCCACAUCUACGAAUUCGUACCAUAGAGAGGUUAUCCCCUGACCGAGAUCGGAAGAGCACACGU
B5: target 1 insG 3' of 10,insU 3' of 4 (mixed)
RNA 1: CACCCGUGCAAAAAUGCAGGGGUCUAAAACUGAGCGGAUAACCUCUCUAUGG
RNA 2: GGGAAUGGAUCCACAUCUACGAAUUCGUACCAUAGAGAGGUUGAUCCGCUUCACCGAGAUCGGAAGAGCACACGU
B6: target 1 MT 5'PFS AAA 3'PFS AUU (mixed)
RNA 1: CACCCGUGCAAAAAUGCAGGGGUCUAAAACUGAGCGGAUAACCUCUCUAUGG
RNA 2: GGGAAUGGAUCCACAUCUACGAAUUCAAACCAUAGAGAGGUUAUCCGCUCAAUUAGAUCGGAAGAGCACACGU
B7: target 1 MT 5'PFS ACA 3'PFS AAC (mixed)
RNA 1: CACCCGUGCAAAAAUGCAGGGGUCUAAAACUGAGCGGAUAACCUCUCUAUGG
RNA 2: GGGAAUGGAUCCACAUCUACGAAUUCACACCAUAGAGAGGUUAUCCGCUCAAACAGAUCGGAAGAGCACACGU
B8: target 1 insG 3' of 14 (mixed)
RNA 1: CACCCGUGCAAAAAUGCAGGGGUCUAAAACUGAGCGGAUAACCUCUCUAUGG
RNA 2: GGGAAUGGAUCCACAUCUACGAAUUCGUACCAUAGAGAGGGUUAUCCGCUCACCGAGAUCGGAAGAGCACACGU
B9: target 1 MT 5'PFS ACG 3'PFS AGC (mixed)
RNA 1: CACCCGUGCAAAAAUGCAGGGGUCUAAAACUGAGCGGAUAACCUCUCUAUGG
RNA 2: GGGAAUGGAUCCACAUCUACGAAUUCACGCCAUAGAGAGGUUAUCCGCUCAAGCAGAUCGGAAGAGCACACGU
B10: target 1 MT 5'PFS ACA 3'PFS AAA (mixed)
RNA 1: CACCCGUGCAAAAAUGCAGGGGUCUAAAACUGAGCGGAUAACCUCUCUAUGG
RNA 2: GGGAAUGGAUCCACAUCUACGAAUUCACACCAUAGAGAGGUUAUCCGCUCAAAAAGAUCGGAAGAGCACACGU
B11: target 1 C4U,A9G (mixed)
RNA 1: CACCCGUGCAAAAAUGCAGGGGUCUAAAACUGAGCGGAUAACCUCUCUAUGG
RNA 2: GGGAAUGGAUCCACAUCUACGAAUUCGUACCAUAGAGAGGUUGUCCGUUCACCGAGAUCGGAAGAGCACACGU
B12: target 1 MT 5'PFS CAG 3'PFS AAC (mixed)
RNA 1: CACCCGUGCAAAAAUGCAGGGGUCUAAAACUGAGCGGAUAACCUCUCUAUGG
RNA 2: GGGAAUGGAUCCACAUCUACGAAUUCCAGCCAUAGAGAGGUUAUCCGCUCAAACAGAUCGGAAGAGCACACGU
B13: target 1 MT 5'PFS CAG 3'PFS AUC (mixed)
RNA 1: CACCCGUGCAAAAAUGCAGGGGUCUAAAACUGAGCGGAUAACCUCUCUAUGG
RNA 2: GGGAAUGGAUCCACAUCUACGAAUUCCAGCCAUAGAGAGGUUAUCCGCUCAAUCAGAUCGGAAGAGCACACGU
B14: target 1 MT 5'PFS AAA 3'PFS AUG (mixed)
RNA 1: CACCCGUGCAAAAAUGCAGGGGUCUAAAACUGAGCGGAUAACCUCUCUAUGG
RNA 2: GGGAAUGGAUCCACAUCUACGAAUUCAAACCAUAGAGAGGUUAUCCGCUCAAUGAGAUCGGAAGAGCACACGU
B15: target 1 MT 5'PFS GUG 3'PFS UAG (mixed)
RNA 1: CACCCGUGCAAAAAUGCAGGGGUCUAAAACUGAGCGGAUAACCUCUCUAUGG
RNA 2: GGGAAUGGAUCCACAUCUACGAAUUCGUGCCAUAGAGAGGUUAUCCGCUCAUAGAGAUCGGAAGAGCACACGU
B16: target 1 MT 5'PFS GCA 3'PFS CGG (mixed)
RNA 1: CACCCGUGCAAAAAUGCAGGGGUCUAAAACUGAGCGGAUAACCUCUCUAUGG
RNA 2: GGGAAUGGAUCCACAUCUACGAAUUCGCACCAUAGAGAGGUUAUCCGCUCACGGAGAUCGGAAGAGCACACGU
B17: target 1 MT 5'PFS GAG 3'PFS UUU (mixed)
RNA 1: CACCCGUGCAAAAAUGCAGGGGUCUAAAACUGAGCGGAUAACCUCUCUAUGG
RNA 2: GGGAAUGGAUCCACAUCUACGAAUUCGAGCCAUAGAGAGGUUAUCCGCUCAUUUAGAUCGGAAGAGCACACGU
B18: target 1 MT 5'PFS CAG 3'PFS AUA (mixed)
RNA 1: CACCCGUGCAAAAAUGCAGGGGUCUAAAACUGAGCGGAUAACCUCUCUAUGG
RNA 2: GGGAAUGGAUCCACAUCUACGAAUUCCAGCCAUAGAGAGGUUAUCCGCUCAAUAAGAUCGGAAGAGCACACGU
B19: target 1 MT 5'PFS CAG 3'PFS UCU (mixed)
RNA 1: CACCCGUGCAAAAAUGCAGGGGUCUAAAACUGAGCGGAUAACCUCUCUAUGG
RNA 2: GGGAAUGGAUCCACAUCUACGAAUUCCAGCCAUAGAGAGGUUAUCCGCUCAUCUAGAUCGGAAGAGCACACGU
B20: target 1 MT 5'PFS GAG 3'PFS CUA (mixed)
RNA 1: CACCCGUGCAAAAAUGCAGGGGUCUAAAACUGAGCGGAUAACCUCUCUAUGG
RNA 2: GGGAAUGGAUCCACAUCUACGAAUUCGAGCCAUAGAGAGGUUAUCCGCUCACUAAGAUCGGAAGAGCACACGU
B21: target 1 MT 5'PFS GAG 3'PFS UUG (mixed)
RNA 1: CACCCGUGCAAAAAUGCAGGGGUCUAAAACUGAGCGGAUAACCUCUCUAUGG
RNA 2: GGGAAUGGAUCCACAUCUACGAAUUCGAGCCAUAGAGAGGUUAUCCGCUCAUUGAGAUCGGAAGAGCACACGU
B22: target 1 MT 5'PFS GGC 3'PFS ACU (mixed)
RNA 1: CACCCGUGCAAAAAUGCAGGGGUCUAAAACUGAGCGGAUAACCUCUCUAUGG
RNA 2: GGGAAUGGAUCCACAUCUACGAAUUCGGCCCAUAGAGAGGUUAUCCGCUCAACUAGAUCGGAAGAGCACACGU
B23: target 1 MT 5'PFS GCA 3'PFS CGA (mixed)
RNA 1: CACCCGUGCAAAAAUGCAGGGGUCUAAAACUGAGCGGAUAACCUCUCUAUGG
RNA 2: GGGAAUGGAUCCACAUCUACGAAUUCGCACCAUAGAGAGGUUAUCCGCUCACGAAGAUCGGAAGAGCACACGU
B24: target 1 MT 5'PFS CAG 3'PFS UCG (mixed)
RNA 1: CACCCGUGCAAAAAUGCAGGGGUCUAAAACUGAGCGGAUAACCUCUCUAUGG
RNA 2: GGGAAUGGAUCCACAUCUACGAAUUCCAGCCAUAGAGAGGUUAUCCGCUCAUCGAGAUCGGAAGAGCACACGU
B25: target 1 C4G,A20U (mixed)
RNA 1: CACCCGUGCAAAAAUGCAGGGGUCUAAAACUGAGCGGAUAACCUCUCUAUGG
RNA 2: GGGAAUGGAUCCACAUCUACGAAUUCGUACCUUAGAGAGGUUAUCCGGUCACCGAGAUCGGAAGAGCACACGU
B26: target 1 MT 5'PFS GAG 3'PFS CUG (mixed)
RNA 1: CACCCGUGCAAAAAUGCAGGGGUCUAAAACUGAGCGGAUAACCUCUCUAUGG
RNA 2: GGGAAUGGAUCCACAUCUACGAAUUCGAGCCAUAGAGAGGUUAUCCGCUCACUGAGAUCGGAAGAGCACACGU
B27: target 1 MT 5'PFS GGC 3'PFS ACC (mixed)
RNA 1: CACCCGUGCAAAAAUGCAGGGGUCUAAAACUGAGCGGAUAACCUCUCUAUGG
RNA 2: GGGAAUGGAUCCACAUCUACGAAUUCGGCCCAUAGAGAGGUUAUCCGCUCAACCAGAUCGGAAGAGCACACGU
B28: target 1 MT 5'PFS UAG 3'PFS CUU (mixed)
RNA 1: CACCCGUGCAAAAAUGCAGGGGUCUAAAACUGAGCGGAUAACCUCUCUAUGG
RNA 2: GGGAAUGGAUCCACAUCUACGAAUUCUAGCCAUAGAGAGGUUAUCCGCUCACUUAGAUCGGAAGAGCACACGU

molecular target: T1, EsCas13d, nuclease-dead; assay: crRNA (strand 1, pre-loaded); Mg2+; 40 mM Tris-HCl pH 7.5, 150 mM NaCl, 6 mM MgCl2, 1 mM DTT, 0.1% Tween-20, 0.2 mg/ml BSA; 25 C; 10 min per concentration, then washed; details: tags: His6-TwinStrep-SUMO cleaved; N-terminal SNAP kept (SNAP-Surface 488); label: 3' end held by stalled T7 RNA polymerase

Binder | Kd [nM]
B1 | 19.9 ± 2.05
B2 | 11.9 ± 5.25
B3 | 39 ± 19.5
B4 | 14 ± 1.1
B5 | 32 ± 7
B6 | 28 ± 9.5
B7 | 15.3 ± 4.85
B8 | 9.4 ± 0.33
B9 | ~31
B10 | ~49
B11 | 42 ± 8
B12 | 75 ± 36.5
B13 | ~17.5
B14 | 28.5 ± 8
B15 | 16 ± 1.5
B16 | 25 ± 6.5
B17 | 23 ± 5.5
B18 | 29 ± 13.5
B19 | 19 ± 7
B20 | 40 ± 15
B21 | 9.9 ± 1.85
B22 | 14.4 ± 1.55
B23 | 41 ± 11
B24 | 9 ± 1.75
B25 | 17.5 ± 2
B26 | ~23.5
B27 | 24.3 ± 5.25
B28 | 28 ± 5.5
